B1: SH3 domain-binding protein 4 (Homo sapiens), Q9P0V3 (parent)
chain: MAAQRIRAANSNGLPRCKSEGTLIDLSEGFSETSFNDIKVPSPSALLVDNPTPFGNAKEVIAIKDYCPTNFTTLKFSKGDHLYVLDTSGGEWWYAHNTTEMGYIPSSYVQPLNYRNSTLSDSGMIDNLPDSPDEVAKELELLGGWTDDKKVPGRMYSNNPFWNGVQTNPFLNGNVPVMPSLDELNPKSTVDLLLFDAGTSSFTESSSATTNSTGNIFDELPVTNGLHAEPPVRRDNPFFRSKRSYSLSELSVLQAKSDAPTSSSFFTGLKSPAPEQFQSREDFRTAWLNHRKLARSCHDLDLLGQSPGWGQTQAVETNIVCKLDSSGGAVQLPDTSISIHVPEGHVAPGETQQISMKALLDPPLELNSDRSCSISPVLEVKLSNLEVKTSIILEMKVSAEIKNDLFSKSTVGLQCLRSDSKEGPYVSVPLNCSCGDTVQAQLHNLEPCMYVAVVAHGPSILYPSTVWDFINKKVTVGLYGPKHIHPSFKTVVTIFGHDCAPKTLLVSEVTRQAPNPAPVALQLWGKHQFVLSRPQDLKVCMFSNMTNYEVKASEQAKVVRGFQLKLGKVSRLIFPITSQNPNELSDFTLRVQVKDDQEAILTQFCVQTPQPPPKSAIKPSGQRRFLKKNEVGKIILSPFATTTKYPTFQDRPVSSLKFGKLLKTVVRQNKNHYLLEYKKGDGIALLSEERVRLRGQLWTKEWYIGYYQGRVGLVHTKNVLVVGRARPSLCSGPELSTSVLLEQILRPCKFLTYIYASVRTLLMENISSWRSFADALGYVNLPLTFFCRAELDSEPERVASVLEKLKEDCNNTENKERKSFQKELVMALLKMDCQGLVVRLIQDFVLLTTAVEVAQRWRELAEKLAKVSKQQMDAYESPHRDRNGVVDSEAMWKPAYDFLLTWSHQIGDSYRDVIQELHLGLDKMKNPITKRWKHLTGTLILVNSLDVLRAAAFSPADQDDFVI
B2: SH3 domain-binding protein 4 (Homo sapiens), Q9P0V3 (parent)
chain: B1 chain
partner: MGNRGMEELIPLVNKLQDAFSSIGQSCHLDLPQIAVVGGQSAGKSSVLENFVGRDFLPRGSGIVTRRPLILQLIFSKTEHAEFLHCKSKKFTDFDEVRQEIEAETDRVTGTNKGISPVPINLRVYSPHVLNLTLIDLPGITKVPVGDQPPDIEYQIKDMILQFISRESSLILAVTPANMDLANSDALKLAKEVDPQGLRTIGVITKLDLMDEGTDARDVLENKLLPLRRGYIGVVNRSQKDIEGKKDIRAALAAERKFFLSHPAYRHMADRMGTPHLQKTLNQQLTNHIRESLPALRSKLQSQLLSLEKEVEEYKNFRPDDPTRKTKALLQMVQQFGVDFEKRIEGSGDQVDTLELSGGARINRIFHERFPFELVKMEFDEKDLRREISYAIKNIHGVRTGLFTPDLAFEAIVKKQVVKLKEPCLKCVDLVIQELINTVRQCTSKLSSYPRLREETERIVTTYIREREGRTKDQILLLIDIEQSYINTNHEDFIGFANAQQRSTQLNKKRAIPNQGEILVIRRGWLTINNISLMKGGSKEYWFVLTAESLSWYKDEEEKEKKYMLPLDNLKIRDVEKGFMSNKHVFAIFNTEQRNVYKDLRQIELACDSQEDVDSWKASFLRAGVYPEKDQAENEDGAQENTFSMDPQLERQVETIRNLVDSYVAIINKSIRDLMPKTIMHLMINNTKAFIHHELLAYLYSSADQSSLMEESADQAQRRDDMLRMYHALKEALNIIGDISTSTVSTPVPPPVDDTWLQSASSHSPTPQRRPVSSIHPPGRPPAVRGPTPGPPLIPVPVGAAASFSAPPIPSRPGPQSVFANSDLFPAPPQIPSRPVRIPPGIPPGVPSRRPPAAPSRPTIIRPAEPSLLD

The first test covers variants of B1. The conditions noted are these: with tfr1_human TFRC.
Regarding W92A, the “effect of a mutation on the interaction” value is “disrupting interaction”.

The variants in the next test derive from B2. Particulars: with dyn2_human DNM2, P50570.
On to W92A, for which the “effect of a mutation on the interaction” value is reported as “disrupting interaction”.

For the origin of these results see IntAct's records for PubMed 16325581.
